Test [1] deals with T1, Human ANGPTL4(26-406)-FLAG-His6-Avi (human, UniProt Q9BY76 24-406, biotin on the C-terminal Avi tag (BirA) where the protein is immobilised).
T1 construct: the text calls it 20 amino acids), then QP, ANGPTL4 26-406 and FLAG-His6-Avi; the signal peptide is left out here; also called full length human ANGPTL4; hANGPTL4
T1 sequence: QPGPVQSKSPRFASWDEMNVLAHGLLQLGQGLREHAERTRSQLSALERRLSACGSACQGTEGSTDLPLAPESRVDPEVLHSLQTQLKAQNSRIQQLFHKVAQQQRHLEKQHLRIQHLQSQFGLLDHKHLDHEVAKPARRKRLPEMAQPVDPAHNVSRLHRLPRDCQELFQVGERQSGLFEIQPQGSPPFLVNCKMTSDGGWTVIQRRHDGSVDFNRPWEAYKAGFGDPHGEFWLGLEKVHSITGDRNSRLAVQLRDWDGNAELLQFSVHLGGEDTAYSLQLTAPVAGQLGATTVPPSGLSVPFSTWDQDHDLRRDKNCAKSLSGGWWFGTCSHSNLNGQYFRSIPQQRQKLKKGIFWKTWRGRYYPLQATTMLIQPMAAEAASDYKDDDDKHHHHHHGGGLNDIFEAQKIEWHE
The experiment in a line: SET (solution equilibrium titration), MSD detection, IgG. The procedure:
(§1) SET assays were performed as follows. In a 96-well polypropylene plate, a constant concentration of ANGPTL4 antibody (10 pM) was mixed with different concentrations of non-biotinylated human, cyno, mouse, or rat full-length ANPGLT4 protein, or human ANGPTL4 N-terminal domain protein (5-fold serial dilution ranging from 0.01 pM to 100 nM) in SET buffer (PBS, pH 7.4 without CaCl₂) or MgCl₂, 0.5% w/v bovine serum albumin (fatty acid free) and 0.02% v/v Tween-20). The final reaction volume was 80 μL. The plate was sealed using an adhesive film and incubated at 22° C. for 14 hours with constant shaking (300 rpm). During the same period of time, a 384-well streptavidin-coated Meso Scale Discovery (MSD) plate was blocked by incubating the plate with 50 μL blocking buffer (PBS, pH 7.4, 5% w/v bovine serum albumin) per well at 4° C. The blocked MSD plate was washed 3 times with wash buffer (PBS, pH 7.4 and 0.05% v/v Tween-20) using a plate washer (BioTek). Biotinylated ANGPTL4 (full-length human, cyno, mouse, or rat ANGPTL4, or human ANGPTL4 N-terminal domain) protein (1 nM, 15 μL per well) was immobilized on the surface of the streptavidin-coated MSD plate by incubation at 22° C. for one hour with constant shaking (600 rpm). The plate was then washed 3 times as described earlier.
(§2) The equilibrium binding reactions (15 μL per well) were applied to the MSD plate with immobilized ANGPTL4 and incubated for 20 min at 22° C. The unbound material was removed by washing the plate 3 times with wash buffer, and the captured antibody was detected by adding 15 μL per well of a 1:500 dilution of Sulfo-tagged goat anti-human IgG (Meso Scale Discovery). The plate was then incubated for one hour with constant shaking (600 rpm). The plate was washed 3 times, and then 15 μL/well of 1× MSD read buffer T was added and the plate was developed using a Sector Imager 6000 (Meso Scale Discovery). The data were transferred to Microsoft Excel for analysis and plotted using GraphPad Prism v6. The KD values were determined by fitting the data to the following equation: […]
(§3) where Bₘₐₓ is the signal when no ANGPTL4 protein is present in solution, CAb is the constant concentration of ANGPTL4 antibody in solution, CAg is the concentration of ANGPTL4 in solution, and KD is the equilibrium dissociation constant.

The target of test [2] is T2, Cynomolgus monkey ANGPTL4(26-406)-FLAG-His6-Avi (cynomolgus monkey, biotin on the C-terminal Avi tag (BirA) where the protein is immobilised).
T2 construct: also called Cyno ANGPTL4 (26-406)
T2 chain: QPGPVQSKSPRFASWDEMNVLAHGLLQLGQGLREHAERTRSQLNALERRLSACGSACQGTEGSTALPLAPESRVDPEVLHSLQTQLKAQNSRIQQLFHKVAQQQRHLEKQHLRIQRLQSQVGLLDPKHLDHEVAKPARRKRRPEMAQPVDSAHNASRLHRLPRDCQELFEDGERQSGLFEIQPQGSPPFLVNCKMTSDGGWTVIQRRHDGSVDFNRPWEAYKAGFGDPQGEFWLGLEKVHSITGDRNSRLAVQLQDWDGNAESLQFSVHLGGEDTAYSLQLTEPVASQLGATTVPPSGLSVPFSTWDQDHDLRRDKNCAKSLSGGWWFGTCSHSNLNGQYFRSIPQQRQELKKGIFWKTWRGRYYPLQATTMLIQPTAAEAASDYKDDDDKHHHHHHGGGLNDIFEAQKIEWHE
The test is described as above. The procedure: as §1, §2, §3

Usually Kd stands for a measure of binding affinity in units of concentration.

B1: NEG310 (antibody, human IgG1, kappa, V domains shown)
VH: QVQLVQSGAEVKKPGASVKVSCKASGYTFTSYTMHWVRQAPGQGLEWMGYINPSSGYTKYNQKFQGRVTMTADKSTSTAYMELSSLRSEDTAVYYCAEGWLLLAMDYWGQGTLVTVSS
VL: EAVVTQSPATLSLSPGERATLSCRSSTGAVTTSNYAIWVQEKPGQAPRGLIGGTNNRAPGIPARFSGSLSGDDATLTISSLQPEDFAVYFCALWYSDHWVFGQGTKVEIKR
notes: humanized, hIgG1/kappa, parental antibody 17B1
For B1, the Kd in test [1] turned out to be 0.021 nM; in test [2], 0.022 nM.

B2: NEG315 (antibody, human IgG1, kappa, V domains shown)
VH: QVQLVQSGAEVKKPGASVKVSCKASGYTFTNYWITWVRQAPGQGLEWMGDFYPGGGNTNYNAKLQGRVTLTVDTSTSTAYMELRSLRSDDTAVYYCARSPPQVAPFDYWGQGTLVTVSS
VL: DIQMTQSPSSLSASVGDRVTITCQASEYIYNWLGWYQQKPGKAPKLLISGASGLETGVPSRFSGSGSGKDYTFTISSLQPEDIATYYCQQYWSTPWTFGQGTKLEIKR
notes: humanized, hIgG1/kappa, parental antibody 37P1
Consider B2, for which the Kd in test [1] amounted to 0.012 nM; in test [2], 0.021 nM.

B3: NEG319 (antibody, human IgG1, kappa, V domains shown)
VH: QVQLVQSGAEVKKPGASVKVSCKASGYTFTSFWITWVRQAPGQGLEWMGDIYPGGANTNYNEKLQGRVTLTVDTSTSTAYMELRSLRSDDTAVYYCARSPPQVGPFDYWGQGTLVTVSS
VL: DIQMTQSPSSLSASVGDRVTITCQASEYIINWLAWYQQKPGKAPKLLISGATGLETGVPSRFSGSGSGKDYTFTISSLQPEDIATYYCQQYWSIPWTFGQGTKLEIKR
notes: humanized, hIgG1/kappa, parental antibody 14P18
On to B3, for which the Kd in test [1] came out at 0.016 nM; in test [2] it was 0.008 nM.

B4: NEG318 (antibody, human IgG1, kappa, V domains shown)
VH: QVQLVQSGAEVKKPGASVKVSCKASGYTFTSFWITWVRQAPGQGLEWMGDIYPGGATTNYNEKLQGRVTLTVDTSTSTAYMELRSLRSDDTAVYYCARSPPQVGPFDYWGQGTLVTVSS
VL: DIQMTQSPSSLSASVGDRVTITCQASDYIYHWLAWYQQKPGKAPKLLISGASSLETGVPSRFSGSGSGKDYTFTISSLQPEDIATYYCQQYWSIPWTFGQGTKLEIKR
notes: as for B3
As to B4, the Kd worked out at 0.009 nM in test [1] and 0.017 nM in test [2].

B5: NEG313 (antibody, human IgG1, kappa, V domains shown)
VH: QVQLVQSGAEVKKPGASVKVSCKASGYTFNNYWITWVRQAPGQGLEWMGDFYPGGGSTNYNAKLQGRVTLTVDTSTSTAYMELRSLRSDDTAVYYCARSPPQVAPFDYWGQGTLVTVSS
VL: DIQMTQSPSSLSASVGDRVTITCQASDYIYHWLGWYQQKPGKAPKLLISGASGLETGVPSRFSGSGSGKDYTFTISSLQPEDIATYYCQQYWSTPWTFGQGTKLEIKR
notes: as for B2
Consider B5, for which the results for the Kd in test [1] and in test [2] were 0.009 nM and 0.015 nM, respectively.

B6: NEG276 (antibody, human IgG1, kappa)
heavy: not shown
light: EIVMTQSPATLSVSPGERATLSCKASQDIGSNLNWLQQKPGQAPRRLIYAVSNRGPGIPARFSGSRSGSEYTLTISSLQSEDFAVYYCLQYASSPWTFGQGTKVEIKRTVAAPSVFIFPPSDEQLKSGTASVVCLLNNFYPREAKVQWKVDNALQSGNSQESVTEQDSKDSTYSLSSTLTLSKADYEKHKVYACEVTHQGLSSPVTKSFNRGEC
notes: humanized, hIgG1/kappa, parental antibody 19C16
As for B6, the Kd was determined as 0.024 nM in test [1] and 0.014 nM in test [2].

B7: NEG278 (antibody, human IgG1, kappa, V domains shown)
VH: QVQLVQSGAEVKKPGASVKVSCKASAYTFTSSWMQWVRQAPGQGLEWMGEIDPSDNYANYNQKFQGRVTLTVDTSTSTAYMELSSLRSEDTAVYYCASGSYFSNFFDYWGQGTLVTVSS
VL: EIVMTQSPATLSVSPGERATLSCKASQDIGSNLNWLQQKPGQAPRRLIYAASVREPGIPARFSGSRSGSEYTLTISSLQSEDFAVYYCLQYASSPWTFGQGTKVEIKR
notes: as for B6
In the case of B7, the figures for the Kd in test [1] and in test [2] were 0.015 nM and 0.02 nM, respectively.

B8: NEG276-LALA (antibody, human IgG1, kappa, L234A L235A)
heavy: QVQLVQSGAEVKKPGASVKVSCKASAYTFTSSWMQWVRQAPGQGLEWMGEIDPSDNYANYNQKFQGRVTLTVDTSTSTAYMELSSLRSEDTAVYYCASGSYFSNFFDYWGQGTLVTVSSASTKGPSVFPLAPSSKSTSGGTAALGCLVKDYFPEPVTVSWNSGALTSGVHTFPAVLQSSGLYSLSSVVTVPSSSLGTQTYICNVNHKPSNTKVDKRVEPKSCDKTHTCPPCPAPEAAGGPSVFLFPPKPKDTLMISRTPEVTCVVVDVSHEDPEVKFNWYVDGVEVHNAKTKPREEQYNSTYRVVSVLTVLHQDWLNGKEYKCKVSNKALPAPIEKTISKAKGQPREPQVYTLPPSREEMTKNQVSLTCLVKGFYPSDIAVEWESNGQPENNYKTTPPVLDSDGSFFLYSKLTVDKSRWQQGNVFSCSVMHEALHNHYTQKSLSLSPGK
light: EIVMTQSPATLSVSPGERATLSCKASQDIGSNLNWLQQKPGQAPRRLIYAVSNRGPGIPARFSGSRSGSEYTLTISSLQSEDFAVYYCLQYASSPWTFGQGTKVEIKRTVAAPSVFIFPPSDEQLKSGTASVVCLLNNFYPREAKVQWKVDNALQSGNSQESVTEQDSKDSTYSLSSTLTLSKADYEKHKVYACEVTHQGLSSPVTKSFNRGEC
On to B8, for which the Kd was 0.008 nM in test [1] and 0.007 nM in test [2].

Source of the values: patent publication US20220213181A1 (Novartis, published 2022).
